Laboratory results reported in patent US20230295310A1 (ABCELLERA BIOLOGICS, published 2023).
Residue numbers refer to the chain shown, from its start.

B1: GOMP001_bsAb_016 (bispecific antibody, human IgG1, kappa, L234A L235A)
heavy 1: QVQLVESGGGVVQPGRSLRLSCAASGFTFSGYGMHWVRKAPGKGLDWVAIIYYNGNNKYYADEVKGRFTISRDNSKNTLYLQMNSLRAEDTAVYYCARGGGYNWFDPWGQGTLVIVSSASTKGPSVFPLAPSSKSTSGGTAALGCLVADYFPEPVTVSWNSGALTSGVHTFPAVLQSSGLYSLSSVVTVPSSSLGTQTYICNVNHKPSNTKVDEKVEPKSCDKTHTCPPCPAPEAAGGPSVFLFPPKPKDTLMISRTPEVTCVVVDVSHEDPEVKFNWYVDGVEVHNAKTKPREEQYNSTYRVVSVLTVLHQDWLNGKEYKCKVSNKALPAPIEKTISKAKGQPREPQVYTLPPSREEMTDNQVSLTCLVKGFYPSDIAVEWESNGQPENNYKTTPPVLMSDGSFFLASKLTVDKSRWQQGNVFSCSVMHEALHNHYTQKSLSLSPG
light 1: RIQMTQSPSSLSASVGDRVTITCRPSQSISNYLNWYQDKPGKAPKLLIYAASSLQSGVPSRFSGSGSGTDFTLTISSLQPEDFATYYCQQSYSTPFTFGRGTRLEIKRTVAAPSVFIFPPSDKQLKSGTARVVCLLNNFYPREAKVQWKVDNALQSGNSQESVTEQDSKDSTYSLSSTLTLSKADYEKHKVYACEVTHQGLSSPVTKSFNRGEC
heavy 2: QVQLVQSGAEVKKPGASVKVSCKASGYTFTSHWMHWVRYAPGQGLEWIGEFNPSNGRTNYNEKFKSKATMTVDTSTNTAYMELSSLRSEDTAVYYCASRDYDYDGRYFDYWGRGTLVTVSSASTKGPSVFPLAPSSKSTSGGTAALGCLVKDYFPEPVTVSWNSGALTSGVHTFPAVLQSSGLYSLSSVVTVPSSSLGTQTYICNVNHKPSNTKVDKKVEPKSCDKTHTCPPCPAPEAAGGPSVFLFPPKPKDTLMISRTPEVTCVVVDVSHEDPEVKFNWYVDGVEVHNAKTKPREEQYNSTYRVVSVLTVLHQDWLNGKEYKCKVSNKALPAPIEKTISKAKGQPRRPRVYTLPPSREEMTKNQVSLVCLVKGFYPSDIAVEWESNGQPENNYKTTPPVLDSDGSFFLYSVLTVDKSRWQQGNVFSCSVMHEALHNHYTQKSLSLSPG
light 2: DIQMTQSPSSLSASVGDRVTITCSASSSVTYMYWYQRKPGDAPKLLIYDTSNLASGVPSRFSGSGSGTDYTFTISSLQPEDIATYYCQQWSSHIFTFGQGTKVEIKRTVAAPSVFIFPPSDEQLKSGTASVVCLLNNFYPREAKVQWKVDNALQSGNSQESVTEQDSKDSTYSLSSTLTLSKADYEKHKVYACEVTHQGLSSPVTKSFNRGEC
B2: GOMP001_bsAb_018 (bispecific antibody, human IgG1, kappa, L234A L235A)
heavy 1: EVQLVESGGDLVQPGRSLRLSCAASGFTFDDCVIHWVRKAPGKGLEWVSGITWNSGRIGYADEVKGRFTISRDNAKNSLYLQMNSLRVEDTALYYCAKEGNYDFWSTYYRGYFDLWGRGTLVTVSSASTKGPSVFPLAPSSKSTSGGTAALGCLVADYFPEPVTVSWNSGALTSGVHTFPAVLQSSGLYSLSSVVTVPSSSLGTQTYICNVNHKPSNTKVDEKVEPKSCDKTHTCPPCPAPEAAGGPSVFLFPPKPKDTLMISRTPEVTCVVVDVSHEDPEVKFNWYVDGVEVHNAKTKPREEQYNSTYRVVSVLTVLHQDWLNGKEYKCKVSNKALPAPIEKTISKAKGQPREPQVYTLPPSREEMTDNQVSLTCLVKGFYPSDIAVEWESNGQPENNYKTTPPVLMSDGSFFLASKLTVDKSRWQQGNVFSCSVMHEALHNHYTQKSLSLSPG
light 1: RIQMTQSPSSLSASVGDRVTITCRASQGIRNDLGWYQDKPGIAPKRLIYAASSLQGGVPLRFSGSGSGTEFTLTISSLQPEDFATYYCLQHNSYPYTFGQGTKLEIKRTVAAPSVFIFPPSDKQLKSGTARVVCLLNNFYPREAKVQWKVDNALQSGNSQESVTEQDSKDSTYSLSSTLTLSKADYEKHKVYACEVTHQGLSSPVTKSFNRGEC
heavy 2: B1 heavy 2
light 2: B1 light 2
B3: GOMP001_bsAb_017 (bispecific antibody, human IgG1, kappa, L234A L235A)
heavy 1: QVQLVQSGAEVKKPGASVKVSCKASGYTFTSHWMHWVRKAPGQGLEWIGEFNPSNGRTNYNEEFKSKATMTVDTSTNTAYMELSSLRSEDTAVYYCASRDYDYDGRYFDYWGQGTLVTVSSASTKGPSVFPLAPSSKSTSGGTAALGCLVADYFPEPVTVSWNSGALTSGVHTFPAVLQSSGLYSLSSVVTVPSSSLGTQTYICNVNHKPSNTKVDEKVEPKSCDKTHTCPPCPAPEAAGGPSVFLFPPKPKDTLMISRTPEVTCVVVDVSHEDPEVKFNWYVDGVEVHNAKTKPREEQYNSTYRVVSVLTVLHQDWLNGKEYKCKVSNKALPAPIEKTISKAKGQPREPQVYTLPPSREEMTDNQVSLTCLVKGFYPSDIAVEWESNGQPENNYKTTPPVLMSDGSFFLASKLTVDKSRWQQGNVFSCSVMHEALHNHYTQKSLSLSPG
light 1: B1 light 2 with D1R, R37D, D41K, E122K, S130R
heavy 2: EVQLVESGGDLVQPGRSLRLSCAASGFTFDDCVIHWVRYAPGKGLEWVSGITWNSGRIGYADRVKGRFTISRDNAKNSLYLQMNSLRVEDTALYYCAKEGNYDFWSTYYRGYFDLWGRGTLVTVSSASTKGPSVFPLAPSSKSTSGGTAALGCLVKDYFPEPVTVSWNSGALTSGVHTFPAVLQSSGLYSLSSVVTVPSSSLGTQTYICNVNHKPSNTKVDKKVEPKSCDKTHTCPPCPAPEAAGGPSVFLFPPKPKDTLMISRTPEVTCVVVDVSHEDPEVKFNWYVDGVEVHNAKTKPREEQYNSTYRVVSVLTVLHQDWLNGKEYKCKVSNKALPAPIEKTISKAKGQPRRPRVYTLPPSREEMTKNQVSLVCLVKGFYPSDIAVEWESNGQPENNYKTTPPVLDSDGSFFLYSVLTVDKSRWQQGNVFSCSVMHEALHNHYTQKSLSLSPG
light 2: B2 light 1 with R1D, D38R, I42D, K123E, R131S

Biological target: EGFR on HeLa cells (UniProt P00533 25-1210, limits assumed)
Experiment: cell-based or functional assay

Binder | Max killing % [%] | X… HeLa EC50 [nM]
B1 | 92 | 0.0192
B2 | 97.3 | 0.111
B3 | 91.4 | 0.705
